In patent US20250236667A1, “ANTIBODIES TO MUTANT CALRETICULIN AND USES THEREOF” (CENTRAL ADELAIDE LOCAL HEALTH NETWORK INC, priority 2021, published 2025):

Legend:
Experiment in all cases: Western blot of STAT/ERK signalling
Assay type in all cases: cell-based, human
[1] = system: phospho-STAT1,3,5 and phospho-ERK in TF-1 TpoR CALR^del61 cells; settings: 10 or 20 μg/mL; 4 and 8 hours
Protocol: (§1) A. Cell extracts blotted for phospho-STAT5, total STAT5, phospho-ERK, total ERK and actin from TF-1 TpoR cells after incubation with 10 or 20 μg/mL 4D7 or IgG for 4 or 8 hours, in presence of TPO. The last line indicates TPO withdrawal. B. Similar experiment using TPO-independent TF-1 TpoR CALR^del61 cells. C. Similar experiment using TPO-independent TF-1 TpoR CALR^del52 cells at 8 hours. D. Fraction of apoptotic sub-Go population of TF-1 TpoR CALR^del61 cells after 48 hours of 4D7 or IgG treatment (n=3). E. Western blot showing caspase 3 cleavage occurring within 24 hours of TPO withdrawal in TPO dependent TF-1 TpoR cells. An increase in cleaved caspase 3 is observed after 48 hours of treatment with 20 μg/mL 4D7 in TF-1 TpoR CALR^del61 and TF-1 TpoR CALR^del52 cells. F. Western blot of TpoR immunoprecipitation under non-reducing conditions showing associated CALR 50 kDa monomers and 100 kDa dimers (arrowheads) present only in TF-1 TpoR CALR^del61 disrupted by 8 hour treatment with 20 μg/mL 4D7 but not PBS or 20 μg/mL IgG. CALR monomers & dimers are detectable by polyclonal anti-wild type CALR or anti-mutant CALR monoclonal antibodies. Arrowheads, detected mutant CALR protein: asterisk, non-specific bands. G. Proposed model for the mechanism of action of 4D7 on mutant CALR. In the active form, mutant CALR dimers bound to TpoR form a constitutively activate receptor complex which is disrupted by 4D7 with blockade in STAT and ERK signalling. (Adapted from Masubuchi et al. (2020), Rivera et al (2021)). […]
(§2) A. Cell extracts blotted for phospho-STAT1, total STAT1, phospho-STAT3, total STAT3 and actin from TF-1 TpoR cells after incubation with 10 or 20 μg/mL 4D7 or IgG for 4 or 8 hours as indicated. […] Cells were harvested and fixed and stained with propidium iodide and their DNA contents were analysed. […] E. Western blot showing specific co-immunoprecipitation of mutant CALR^del61 cells with TpoR anti-FLAG antibody under reducing conditions detected by total and mutant specific CALR antibodies. Arrowheads represent detected CALR protein. […]

[2] = system: phospho-STAT1,3,5 and phospho-ERK in TF-1 cells expressing TpoR alone; settings: 10 or 20 μg/mL for 4 or 8 hours, in presence of TPO
Protocol: as §1, §2

[3] = system: phospho-STAT1,3,5 and phospho-ERK in TF-1 TpoR CALR^del52 cells; settings: 10 or 20 μg/mL; 8 hours
Protocol: as §1, §2

B1: 4D7: rat monoclonal IgG2a antibody against the mutant CALR neoepitope; VH SEQ ID NO: 5, VL SEQ ID NO: 7 (antibody, listed as Rattus rattus, V domains shown)
VH: QVQLQQSGAELAKPGSSVKISCKASGYTFTNYDMSWIKQRPGQALEWIGAINPGNGVTDYNEKFRGKATLTVDKSSSTAFMQLSSLTPEDTAVYHCAREYRDNYGYFDYWGQGVMVTVSS
VL: DIVLTQTPVSLSVTLGDQASISCRSSQSLEYSDGYTYLDWFLQKPGQSPQLLIYEVSSRFSGVPDRFIGRGSGTDFTLKISRVEPEDLGVYYCFQATHDPFTFGSGTKLEIK
constitutive factor-independent phospho-STAT1,3,5 and phospho-ERK [1]: blockade
inhibition of signalling [2]: no inhibition of signalling
constitutive factor-independent phospho-STAT1,3,5 and phospho-ERK [3]: blockade
